Test results as given in article PMC6606709, “Granzyme A Stimulates pDCs to Promote Adaptive Immunity via Induction of Type I IFN” (Frontiers in Immunology, 2019).

Target: the molecule itself
Experiment: SDS-PAGE under reduced and non-reduced conditions; reduced and non-reduced GzmA run on 10-12 % SDS-PAGE, Coomassie Brilliant Blue stain

B1: recombinant granzyme A (GzmA), mouse, residues 29-260, histidine-tagged (enzyme, UniProt P11032 29-260, looked up)
chain: IIGGDTVVPHSRPYMALLKLSSNTICAGALIEKNWVLTAAHCNVGKRSKFILGAHSINKEPEQQILTVKKAFPYPCYDEYTREGDLQLVRLKKKATVNRNVAILHLPKKGDDVKPGTRCRVAGWGRFGNKSAPSETLREVNITVIDRKICNDEKHYNFHPVIGLNMICAGDLRGGKDSCNGDSGSPLLCDGILRGITSFGGEKCGDRRWPGVYTFLSDKHLNWIKKIMKGSV
notes: mouse granzyme A, residues 29-260; also called recombinant GzmA
stoichiometry N: 2
